Reference: US20240002522A1 (INSERM INSTITUT NATIONAL DE LA SANTE ET DE LA RECHERCHE …, published 2024)

T1: human CD25 (human, UniProt P01589 22-272)
T1 construct: In the functional assays it was native on T cells or SUDHL-1 cells; also called huCD25; hCD25
T1 sequence: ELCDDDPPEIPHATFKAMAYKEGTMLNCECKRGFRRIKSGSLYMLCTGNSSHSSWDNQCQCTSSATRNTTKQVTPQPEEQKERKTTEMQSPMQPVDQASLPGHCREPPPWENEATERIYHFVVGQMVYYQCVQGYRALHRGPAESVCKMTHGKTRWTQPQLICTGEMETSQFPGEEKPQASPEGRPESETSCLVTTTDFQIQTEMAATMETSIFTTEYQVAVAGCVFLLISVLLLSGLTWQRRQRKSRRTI

B1: B01 (antibody, V domains shown)
VH: QVQLVESGGGVVQPGRSLRLSCAASGFTFSNHAMAWVRQAPGKGLEWVAVISYDGSNKYYADSVKGRFTISRDNAKSTLYLQMNSLRAEDTAVYYCTTGLNSGYDWGQGTLVTVSS
VL: DIQMTQSPSSLSASVGDRVTITCRASQNISSFLNWYQQKPGEAPRRLIYGTNSLQSGVPSRFSGSGSGTDYTLTISSLQPEDFATYYCQQYNSWPWTFGQGTKLEIK
notes: detected with anti-human IgG (Fc specific); also called anti-CD25 antibody B01
B2: G09 (antibody, V domains shown)
VH: QVQLVESGGGVVQPGRSLRLSCAASGFTFSNHAMAWVRQAPGKGLEWVAVISYDGSNKYYRDSVKGRFTISRDNAQNTLYLQMNSLRAEDTAVYYCTTGLNSGYDWGQGTLVTVSS
VL: DIQMTQSPSSLSASVGDRVTITCRASQNVSSFLNWYQQKPGEAPRRLIYGTNSLQSGVPSRFSGSGSGTDYTLTISSLQPEDFATYYCQQYNSWPWTFGQGTKLEIK
notes: detected with anti-human IgG (Fc specific); also called anti-CD25 antibody G09
B3: H01 (antibody, V domains shown)
VH: QVQLVESGGGVVQPGRSLRLSCAASGFTFSNHAMAWVRQAPGKGLEWVAVISYDGSNKYYADSVKGRFTISRDNSQNTLYLQMNSLRAEDTAVYYCTTGLNSGYDWGQGTLVTVSS
VL: DIQMTQSPSSLSASVGDRVTITCRASQNVSSFLNWYQQKPGKAPRRLIYGTSSLQSGVPSRFSGSGSGTDYTLTISSLQPEDFATYYCQQYTSWPWTFGQGTKLEIK
notes: detected with anti-human IgG (Fc specific); also called anti-CD25 antibody H01
B4: H02 (antibody, V domains shown)
VH: QVQLVESGGGVVQPGRSLRLSCAASGFTFSNHAMAWVRQAPGKGLEWVAVISYDGSNKYYRDSVKGRFTISRDNSQSTLYLQMNSLRAEDTAVYYCTTGLNSGYDWGQGTLVTVSS
VL: DIQMTQSPSSLSASVGDRVTITCRASQNVSSFLNWYQQKPGEAPRRLIYGTNSLQSGVPSRFSGSGSGTDYTLTISSLQPEDFATYYCQQYNSWPWTFGQGTKLEIK
notes: detected with anti-human IgG (Fc specific); also called anti-CD25 antibody H02
B5: H07 (antibody, V domains shown)
VH: QVQLVESGGGVVQPGRSLRLSCAASGFTFSNHAMAWVRQAPGKGLEWVAVISYDGSNKYYADSVKGRFTISRDNAKNTLYLQMNSLRAEDTAVYYCTTGWNSGYDWGQGTLVTVSS
VL: DIQMTQSPSSLSASVGDRVTITCRASQSVNSFLNWYQQKPGKAPRRLIYGTSSLQSGVPSRFSGSGSGTDYTLTISSLQPEDFATYYCQQYTSWPWTFGQGTKLEIK
notes: It was detected with anti-human IgG (Fc specific), and a human IgG1 isotype served as control; also called anti-CD25 antibody H07
B6: H08 (antibody, V domains shown)
VH: QVQLVESGGGVVQPGRSLRLSCAASGFTFSNHAMAWVRQAPGKGLEWVAVISYDGSNKYYADSVKGRFTISRDNSKNTLYLQMNSLRAEDTAVYYCTTGLNSGYDWGQGTLVTVSS
VL: DIQMTQSPSSLSASVGDRVTITCRASQSVSSYLNWYQQKPGKAPRRLIYGTNSLQSGVPSRFSGSGSGTDYTLTISSLQPEDFATYYCQQYTSWPWTFGQGTKLEIK
notes: detected with anti-human IgG (Fc specific); also called anti-CD25 antibody H08

molecular target: T1, human CD25; assay: flow cytometry on HEK293 cells transiently transfected with huCD25; 3-fold dilutions from 500 nM; detection with anti-human IgG (Fc specific) FITC

Binding result, binds:
B1, B2, B3, B4, B5, B6
